B1: Vinculin (Gallus gallus (Chicken)), P12003-1 (parent)
chain: MPVFHTRTIESILEPVAQQISHLVIMHEEGEVDGKAIPDLTAPVSAVQAAVSNLVRVGKETVQTTEDQILKRDMPPAFIKVENACTKLVRAAQMLQADPYSVPARDYLIDGSRGILSGTSDLLLTFDEAEVRKIIRVCKGILEYLTVAEVVETMEDLVTYTKNLGPGMTKMAKMIDERQQELTHQEHRVMLVNSMNTVKELLPVLISAMKIFVTTKNTKSQGIEEALKNRNFTVEKMSAEINEIIRVLQLTSWDEDAWASKDTEAMKRALALIDSKMNQAKGWLRDPNAPPGDAGEQAIRQILDEAGKAGELCAGKERREILGTCKTLGQMTDQLADLRARGQGATPMAMQKAQQVSQGLDLLTAKVENAARKLEAMTNSKQAIAKKIDAAQNWLADPNGGSEGEEHIRGIMSEARKVAELCEEPKERDDILRSLGEISALTAKLSDLRRHGKGDSPEARALAKQIATSLQNLQSKTNRAVANTRPVKAAVHLEGKIEQAQRWIDNPTVDDRGVGQAAIRGLVAEGRRLANVMMGPYRQDLLAKCDRVDQLAAQLADLAARGEGESPQARAIAAQLQDSLKDLKARMQEAMTQEVSDVFSDTTTPIKLLAVAATAPSDTPNREEVFEERAANFENHAARLGATAEKAAAVGTANKTTVEGIQATVKSARELTPQVVSAARILLRNPGNQAAYEHFETMKNQWIDNVEKMTGLVDEAIDTKSLLDASEEAIKKDLDKCKVAMANMQPQMLVAGATSIARRANRILLVAKREVENSEDPKFREAVKAASDELSKTISPMVMDAKAVAGNISDPGLQKSFLDSGYRILGAVAKVREAFQPQEPDFPPPPPDLEHLHLTDELAPPKPPLPEGEVPPPRPPPPEEKDEEFPEQKAGEAINQPMMMAARQLHDEARKWSSKGNDIIAAAKRMALLMAEMSRLVRGGSGNKRALIQCAKDIAKASDEVTRLAKEVAKQCTDKRIRTNLLQVCERIPTISTQLKILSTVKATMLGRTNISDEESEQATEMLVHNAQNLMQSVKETVREAEAASIKIRTDAGFTLRWVRKTPWYQ

Variants of: B1
Settings: with arpc2_mouse Arpc2, Q9CVB6

Variant | effect of a mutation on the interaction
P878A | disrupting interaction

Reference: IntAct's records for PubMed 12473693
